T1: human Sky (human, UniProt Q06418 41-890)
T1 construct: whole, on cells; Transiently expressed on HEK293T cells (pcDNA3-hSky); also called hSky
T1 sequence (looked up): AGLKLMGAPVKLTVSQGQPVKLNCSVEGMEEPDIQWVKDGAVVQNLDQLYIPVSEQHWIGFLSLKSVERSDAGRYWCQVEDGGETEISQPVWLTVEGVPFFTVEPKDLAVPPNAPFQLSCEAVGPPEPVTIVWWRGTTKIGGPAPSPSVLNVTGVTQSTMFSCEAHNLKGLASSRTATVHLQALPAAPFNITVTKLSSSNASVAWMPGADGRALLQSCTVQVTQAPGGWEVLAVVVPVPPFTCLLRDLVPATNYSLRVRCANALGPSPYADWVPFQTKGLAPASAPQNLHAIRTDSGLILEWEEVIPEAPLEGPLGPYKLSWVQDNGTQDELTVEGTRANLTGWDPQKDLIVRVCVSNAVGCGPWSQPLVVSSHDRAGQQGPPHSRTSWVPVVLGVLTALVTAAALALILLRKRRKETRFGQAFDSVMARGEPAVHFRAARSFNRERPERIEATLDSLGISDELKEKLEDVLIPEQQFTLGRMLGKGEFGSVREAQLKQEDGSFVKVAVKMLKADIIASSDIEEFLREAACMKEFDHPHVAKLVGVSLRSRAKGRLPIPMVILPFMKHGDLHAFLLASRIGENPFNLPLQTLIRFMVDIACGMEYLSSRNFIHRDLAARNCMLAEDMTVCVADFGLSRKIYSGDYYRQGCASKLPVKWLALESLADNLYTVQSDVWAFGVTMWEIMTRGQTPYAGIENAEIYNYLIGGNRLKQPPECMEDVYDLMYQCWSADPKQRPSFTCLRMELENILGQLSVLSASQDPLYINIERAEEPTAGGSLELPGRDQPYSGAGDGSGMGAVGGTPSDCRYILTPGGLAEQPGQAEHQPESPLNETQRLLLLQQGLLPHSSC

T2: human Mer (human, UniProt Q12866 21-999)
T2 construct: whole, on cells; Transiently expressed on HEK293T cells; also called hMer
T2 sequence (looked up): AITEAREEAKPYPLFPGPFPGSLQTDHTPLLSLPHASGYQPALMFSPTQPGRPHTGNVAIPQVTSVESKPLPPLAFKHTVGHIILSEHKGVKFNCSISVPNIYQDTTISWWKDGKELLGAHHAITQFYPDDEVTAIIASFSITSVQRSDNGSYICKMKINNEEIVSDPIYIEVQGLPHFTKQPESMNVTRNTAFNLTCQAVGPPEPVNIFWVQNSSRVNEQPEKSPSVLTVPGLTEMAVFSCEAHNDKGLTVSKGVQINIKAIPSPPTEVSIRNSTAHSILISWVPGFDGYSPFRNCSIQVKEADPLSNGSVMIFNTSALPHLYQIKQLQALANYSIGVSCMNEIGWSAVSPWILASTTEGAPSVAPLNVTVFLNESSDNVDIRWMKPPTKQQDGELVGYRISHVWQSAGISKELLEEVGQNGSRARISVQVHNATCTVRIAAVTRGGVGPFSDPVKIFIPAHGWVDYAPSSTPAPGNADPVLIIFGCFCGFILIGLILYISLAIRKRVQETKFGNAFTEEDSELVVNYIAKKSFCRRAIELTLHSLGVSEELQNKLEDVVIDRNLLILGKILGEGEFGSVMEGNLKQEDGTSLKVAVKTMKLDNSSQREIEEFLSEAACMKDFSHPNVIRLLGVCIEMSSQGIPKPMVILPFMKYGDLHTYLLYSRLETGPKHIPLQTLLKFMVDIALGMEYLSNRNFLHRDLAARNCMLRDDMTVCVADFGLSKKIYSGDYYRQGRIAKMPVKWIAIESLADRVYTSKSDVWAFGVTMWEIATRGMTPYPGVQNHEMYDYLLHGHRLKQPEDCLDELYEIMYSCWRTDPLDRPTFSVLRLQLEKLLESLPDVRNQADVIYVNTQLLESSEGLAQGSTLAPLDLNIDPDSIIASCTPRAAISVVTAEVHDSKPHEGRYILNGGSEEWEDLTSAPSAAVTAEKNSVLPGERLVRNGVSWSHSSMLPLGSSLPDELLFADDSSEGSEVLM

B1: I 11B7 (antibody, V domains shown)
VH: EVQLQESGPGLVKPSQSLSLTCSVTGYSITSNYWGWIRKFPGDKMEWMGYITYSGSTSYNPSLKSRISITRDTSKNQFFLQLNSVTSEDTATYYCAITTFYYWGQGVMVTVSS
VL: DIQMTQAPSSLPASLGDRVTITCRASQDIGNYLRWFQQKPGKSPRLMISGATNLAAGVPSRFSGSRSGSDYSLTISSLESEDMADYYCLQSKESPWTFGGGTKLELK
notes: rat hybridoma antibody, antagonistic
B2: I 10D12 (antibody, V domains shown)
VH: EVQLQESGPGLVKPSQSLSLTCSVTGYSITSNYWGWIRKFPGNKMEWMGYITNSGGTAYNPSLKSRISITRDTSKNQFFLQLNSVIPEDSATYFCSRTPWDWGQGVMVTVSS
VL: B1 VL with T22A, L73R
notes: rat hybridoma antibody, antagonistic; subclass G1
B3: III 11D5 (antibody, rat IgG2a, V domains shown)
VH: EVQLQESGPGLVKPSQSLSLTCSVTGYSITSNYWGWIRKFPGNKMEWIGHITNSGNTTYNPSLKSRISISRDTSRNQFFLQLNSVTTEDTATYYCAKGAFDYWGQGVMVTVSS
VL: DIQMTQSPSSMSTSLGDRVTITCRASQDIGNYLSWFQQKVGKSPRRMIYGAIKLAVGVPSRFSGSRSGSDYSLTISSLESEDMAIYYCLQYIQFPLTFGSGTKLELK
notes: as for B1

Residue numbers refer to the chain shown, from its start.

The values that follow come from patent publication US20100330095A1 (U3 PHARMA, published 2010).

The target of the first assay is T1, human Sky. In words: flow cytometry, transiently transfected HEK293T cells. How it is done:
(§1) FIG. 3. Flow cytometry analysis of cross-reactivity of rat-anti AXL antibodies with mouse and cynomolgus monkey AXL as well as human Mer and Sky. HEK293T fibroblasts were transiently transfected with pcDNA3, pcDNA3-hAXL, pcDNA3 mAXL, pcDNA3-cyAXL, pcDNA3-hMer, or pcDNA3-hSky. […] See text for details.
(§2) For FACS analysis, 2×10⁵ cells were harvested with 10 mM EDTA in PBS, washed once with FACS buffer (PBS, 3% FCS, 0.4% azide) and seeded on a 96 well round bottom plate. […] After incubation on ice for 1 h, cells were washed twice with chilled FACS buffer and resuspended with PE-conjugated donkey anti-rat (Jackson) secondary antibody diluted 1:50 in FACS buffer (100 μl/well) or PE-conjugated donkey anti-mouse secondary antibody for control. Protected from light, cells were incubated on ice for 30 min, washed twice with FACS buffer and analyzed using an Epics XL-MCL flow cytometer (Beckman Coulter).
Consider B1, for which the binding result is “no binding (tested: 10 µg/ml)”.

With B2, the binding result was “no binding (tested: 10 µg/ml)”.

For B3, the binding result was “no binding (tested: 10 µg/ml)”.

The next assay has as its target T2, human Mer. The description is as above. The protocol: as §1, §2
For the molecule B1, the binding result is “no binding (tested: 10 µg/ml)”.

Consider B2, for which the binding result is given as “no binding (tested: 10 µg/ml)”.

In the case of B3, the binding result is listed as “no binding (tested: 10 µg/ml)”.
